Laboratory results from paper PMC11107369, “The Plasmodium vivax MSP1P-19 is involved in binding of reticulocytes through interactions with the membrane proteins band3 and CD71” (The Journal of Biological Chemistry, 2024).

Molecular target: T1, Recombinant CD71-ECD immobilised on the CM5 chip (SPR) (human, UniProt P02786 89-760)
T1 construct: Human transferrin receptor protein 1 (CD71), extracellular domain; source: recombinant
Experiment: SPR; BIAcore S200; CD71-ECD coupled to CM5 chip (EDC/NHS, 10 mM NaAc pH 4.5); analyte PvMSP1P-19 6.25, 12.5, 25, 50 μM at 30 μl/min; 1:1 Langmuir model; apparent KD
Conditions: both partners purified

T1 sequence (P02786 89-760): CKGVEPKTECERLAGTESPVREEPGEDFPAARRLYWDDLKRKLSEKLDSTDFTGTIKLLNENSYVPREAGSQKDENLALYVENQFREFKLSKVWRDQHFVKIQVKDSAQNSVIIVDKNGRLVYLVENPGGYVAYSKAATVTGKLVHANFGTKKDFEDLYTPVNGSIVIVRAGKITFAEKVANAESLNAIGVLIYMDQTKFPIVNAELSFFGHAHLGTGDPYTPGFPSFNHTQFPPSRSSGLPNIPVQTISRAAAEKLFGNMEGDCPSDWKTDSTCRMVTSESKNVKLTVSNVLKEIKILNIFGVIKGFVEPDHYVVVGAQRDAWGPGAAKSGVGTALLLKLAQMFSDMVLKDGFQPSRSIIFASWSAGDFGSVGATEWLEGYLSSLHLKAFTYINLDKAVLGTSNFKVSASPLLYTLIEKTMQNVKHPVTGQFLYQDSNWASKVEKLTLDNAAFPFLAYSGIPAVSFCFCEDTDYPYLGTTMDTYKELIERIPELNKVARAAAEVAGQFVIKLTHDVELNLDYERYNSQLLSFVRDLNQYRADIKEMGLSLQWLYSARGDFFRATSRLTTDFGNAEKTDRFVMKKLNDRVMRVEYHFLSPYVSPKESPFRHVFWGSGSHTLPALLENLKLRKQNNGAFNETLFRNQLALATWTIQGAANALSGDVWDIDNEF

B1: Plasmodium vivax merozoite surface protein 1 paralog, 19-kDa C-terminal region (PvMSP1P-19), Trx-His-Flag-tagged (domain or fragment)
chain: DRVEKNCRNRKCPLNSFCFIQTINEECLCLLNYSMVGEKCILNEQNSCAVKNGGCDLKATCELKKNRVNCICPKGTKPMHEGVVCS
notes: P. vivax merozoite surface protein 1 paralog (PvMSP1P, 1854 aa), PlasmoDB PVX_099975, aa 1749-1834 (two EGF-like domains); Migrates at ~36 kDa; also called Trx-His-PvMSP1P-19; His-MSP1P-19; source: E. coli BL21 (DE3) and SHuffle T7 E. coli, pET32a, soluble, purified by Talen Biotech
- Kd: 35.5 µM
